# Patent US20240343814A1
# Substitutions are numbered along the chain they refer to.
# B1: VRDN-02500 (antibody, human IgG1, kappa, V domains shown)
# VH: EVQLVQSGGGLVKPGGSLRLSCAASGFTFSSFAMHWVRQAPGKGLEWISVIDTRGATYYADSVKGRFTISRDNAKNSLYLQMNSLRAEDTAVYYCARLGNFYYGMDVWGQGTTVTVSS
# VL: EIVLTQSPGTLSVSPGERATLSCRASQSIGSSLHWYQQKPGQAPRLLIKYASQSLSGIPDRFSGSGSGTDFTLTISRLEPEDFAVYYCHQSSRLPHTFGQGTKVEIKR
# B2: VRDN-02526 (antibody, V domains shown)
# VH: B1 VH with D106H
# VL: EIVLTQSPGTLSVSPGERATLSCRASQSIGSSLHWYQQKPGQAPRLLIKYASQSLSGIPDRFSGSGSGTDFTLTISRLEPEDFAVYYCHQSSRLPHTFGQGTKVEIK
# B3: VRDN-02514 (antibody, V domains shown)
# VH: B1 VH with A56H
# VL: B2 VL
# B4: VRDN-02512 (antibody, V domains shown)
# VH: B1 VH with R54H
# VL: B2 VL
# B5: VRDN-02513 (antibody, V domains shown)
# VH: B1 VH with G55H
# VL: B2 VL
# B6: VRDN-02515 (antibody, V domains shown)
# VH: B1 VH with T57H
# VL: B2 VL
# Target: Recombinant human his-tagged IGF 1R extracellular domain protein (human) (UniProt P08069)
# Experiment: SPR, captured IgG, IGF-1R ECD-his analyte, dissociation pH 6; dissociation at pH 6
row,koff [s⁻¹],Binder
1,< 1e-06,B1
2,< 1e-06,B2

# Target: Recombinant human his-tagged IGF 1R extracellular domain protein (human) (UniProt P08069)
# Experiment: SPR, captured IgG, IGF-1R ECD-his analyte, dissociation pH 6
Kd [nM],kon [M⁻¹ s⁻¹],koff [s⁻¹],Binder
< 0.0161,47500,–,B1
0.0283,35300,1e-06,B3
1.2,32900,3.96e-05,B4
0.0322,31100,1e-06,B5
< 0.0273,36600,–,B2
0.692,100000,6.92e-05,B6

# Target: Recombinant human his-tagged IGF 1R extracellular domain protein (human) (UniProt P08069)
# Experiment: SPR, captured IgG, IGF-1R ECD-his analyte, dissociation pH 7.4; dissociation at pH 7.4
row,koff [s⁻¹],Binder
1,< 1e-06,B3

# Target: Recombinant human his-tagged IGF 1R extracellular domain protein (human) (UniProt P08069)
# Experiment: SPR, captured IgG, IGF-1R ECD-his analyte, dissociation pH 7.4
Kd [nM],koff [s⁻¹],kon [M⁻¹ s⁻¹],Binder
0.626,3.89e-05,62100,B1
< 0.00926,–,108000,B3
6.08,0.000271,44600,B4
1.06,5.09e-05,48200,B5
0.00543,1e-06,184000,B2
0.571,5.82e-05,102000,B6
